Measured values: paper doi:10.1101/2020.12.28.424526 (bioRxiv, 2020)

T1: 5'-3' exoribonuclease-2 (XRN-2) (C. elegans (endogenous in worm lysate), UniProt Q9U299 1-975)
T1 sequence (looked up): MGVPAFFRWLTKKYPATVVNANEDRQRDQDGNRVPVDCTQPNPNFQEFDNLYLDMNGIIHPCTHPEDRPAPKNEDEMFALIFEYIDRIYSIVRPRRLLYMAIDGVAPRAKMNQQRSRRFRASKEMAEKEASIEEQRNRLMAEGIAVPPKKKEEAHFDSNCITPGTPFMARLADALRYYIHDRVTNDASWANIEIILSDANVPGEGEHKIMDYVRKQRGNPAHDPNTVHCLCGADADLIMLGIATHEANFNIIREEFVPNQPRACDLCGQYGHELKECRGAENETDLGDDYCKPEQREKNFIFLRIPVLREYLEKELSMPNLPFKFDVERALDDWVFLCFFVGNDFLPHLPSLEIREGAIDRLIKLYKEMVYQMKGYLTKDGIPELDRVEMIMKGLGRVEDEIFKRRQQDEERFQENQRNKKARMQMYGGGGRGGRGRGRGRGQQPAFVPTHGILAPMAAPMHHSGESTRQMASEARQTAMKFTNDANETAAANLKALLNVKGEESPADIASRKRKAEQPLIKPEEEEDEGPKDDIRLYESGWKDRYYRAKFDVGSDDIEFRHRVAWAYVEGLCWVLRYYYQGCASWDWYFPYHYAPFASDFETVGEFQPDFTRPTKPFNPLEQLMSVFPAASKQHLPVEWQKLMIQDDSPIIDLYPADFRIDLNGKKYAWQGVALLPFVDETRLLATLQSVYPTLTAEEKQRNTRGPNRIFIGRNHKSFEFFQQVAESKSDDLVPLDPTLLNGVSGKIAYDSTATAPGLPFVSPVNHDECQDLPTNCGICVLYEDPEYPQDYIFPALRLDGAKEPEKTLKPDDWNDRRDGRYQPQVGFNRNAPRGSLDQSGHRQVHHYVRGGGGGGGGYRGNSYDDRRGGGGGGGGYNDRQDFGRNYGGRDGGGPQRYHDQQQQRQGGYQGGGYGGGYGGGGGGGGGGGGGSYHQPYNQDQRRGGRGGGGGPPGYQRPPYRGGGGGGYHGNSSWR

T2: recombinant XRN-2 (C. elegans, UniProt Q9U299 1-975)
T2 sequence (looked up): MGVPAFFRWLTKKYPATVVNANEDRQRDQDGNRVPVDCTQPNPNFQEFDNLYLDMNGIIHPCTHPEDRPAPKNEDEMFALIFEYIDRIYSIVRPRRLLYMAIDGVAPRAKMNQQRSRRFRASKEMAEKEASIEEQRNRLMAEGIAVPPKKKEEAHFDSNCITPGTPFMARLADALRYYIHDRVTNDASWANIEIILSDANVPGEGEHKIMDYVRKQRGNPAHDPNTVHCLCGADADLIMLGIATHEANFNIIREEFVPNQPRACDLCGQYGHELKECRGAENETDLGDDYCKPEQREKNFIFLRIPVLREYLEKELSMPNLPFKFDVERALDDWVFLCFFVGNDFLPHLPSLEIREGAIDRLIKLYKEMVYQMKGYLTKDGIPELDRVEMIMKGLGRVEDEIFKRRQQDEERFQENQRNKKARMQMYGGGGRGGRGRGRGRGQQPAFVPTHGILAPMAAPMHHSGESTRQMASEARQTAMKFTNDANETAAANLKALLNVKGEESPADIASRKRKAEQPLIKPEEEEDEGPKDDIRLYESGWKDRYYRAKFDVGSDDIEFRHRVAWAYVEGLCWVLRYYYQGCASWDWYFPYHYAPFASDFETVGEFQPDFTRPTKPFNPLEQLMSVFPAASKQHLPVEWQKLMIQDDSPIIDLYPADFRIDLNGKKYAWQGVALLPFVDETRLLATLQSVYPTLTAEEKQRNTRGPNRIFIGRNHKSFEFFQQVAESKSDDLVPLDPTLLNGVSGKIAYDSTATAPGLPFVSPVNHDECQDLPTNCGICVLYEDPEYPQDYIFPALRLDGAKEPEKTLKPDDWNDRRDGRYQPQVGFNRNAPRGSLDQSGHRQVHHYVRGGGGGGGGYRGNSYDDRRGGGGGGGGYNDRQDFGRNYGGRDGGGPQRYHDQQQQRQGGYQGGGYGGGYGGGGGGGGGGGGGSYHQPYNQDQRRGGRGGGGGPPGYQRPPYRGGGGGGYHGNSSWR

B1: partner of XRN two-1 (PAXT-1) (natural protein, C. elegans (endogenous in worm lysate), UniProt Q21738 1-335, looked up)
chain: MGKLEDVEAEKKLWESDDAWELRKAFMLAHYDDYPKIQLQCLSQLFINVTLLGCEYSQTLMQKIRTMGAGIAANKDRTKTGSYVKASAAKKRQAVKTSDLEGASDESKKVKMEKSPSPVARESFDERLGKLKASLAMTPHHLTGEQMMKTATNSCLMKWHVNKINQKIEITIDRYVAFRHTFSQYCVDPRDCAINTLIESILSCDAAVHEESYEIRFDGVPVDECYAKSVTRRLAKIKSAVSNGAHTVKGLTTYLDAVNMSMIQNTQKLEGWSQQLDLVTADLLLSSRVLSSTECTKPAMATIANQMSEDVCQLILNDKINVINSMKSHSSLAFQ
B2: recombinant PAXT-1 (natural protein, C. elegans, UniProt Q21738 1-335, looked up)
chain: MGKLEDVEAEKKLWESDDAWELRKAFMLAHYDDYPKIQLQCLSQLFINVTLLGCEYSQTLMQKIRTMGAGIAANKDRTKTGSYVKASAAKKRQAVKTSDLEGASDESKKVKMEKSPSPVARESFDERLGKLKASLAMTPHHLTGEQMMKTATNSCLMKWHVNKINQKIEITIDRYVAFRHTFSQYCVDPRDCAINTLIESILSCDAAVHEESYEIRFDGVPVDECYAKSVTRRLAKIKSAVSNGAHTVKGLTTYLDAVNMSMIQNTQKLEGWSQQLDLVTADLLLSSRVLSSTECTKPAMATIANQMSEDVCQLILNDKINVINSMKSHSSLAFQ
B3: recombinant NOL-58 (natural protein, C. elegans, UniProt O45012 1-487, looked up)
chain: MLVLFEVAAGYAVFKLSNEKKLKNVDNIWEEFSTAEKAQENLQLVSFKKFKTTAGAVEATSEITEGKLSKTLKKLLKSSVDETEKLAVGDAKLGNLIKEKLSLNCVHDSSINELMRGVRAHIEDLLAEHKEEMNAMNLAVAHSLARYKVKFNPEKIDTMIVQAVSLLDDLDKELNNYVMRVREWYGWHFPELGKTIQDHQAYAKIIKAIGMRQNCINTDLSSILPEELEEKVKEDAEISMGTDISDIDLIHIKGLCDQVIELSAYRAQLFDYLKNRMTALAPNLTVLLGELVGARLISHAGSLVSLAKAPASTIQILGAEKALFRALKTKKDTPKYGLIYHAQLITQAPPKVKGKMARKLAAKCSLATRIDALSDESATNEIGIECRAALENVLRTESERGPSKNKSFGSHRHDKYEFKSETYEYDASADTPASRKHKRFDDNEESTNAIKKMKIEEVKEEDEAEPEKKKKKKEKKAKKADTDSDEE
B4: recombinant miRNasome-1.4 (natural protein, C. elegans, UniProt Q17426 1-577, looked up)
chain: METEFGLTEYASEHTITPVPCLLKEMYSDFIVQEILADHTVLAIPSPDVVLESTGSKKEDIEIEECVAKPDCISEETLAALNDRFSTKGDPVLVKVDDLSKEDRKSIHHFIRERYAGVLITETKEDGILVSHGHTKSSRKRKLWDEKVPKECHFTICKENKETSFACQLIAKFLNVGPNNIRTHGIKDKRAVTSQRVSVTKVHERTILDLNSKLRGIRVFGCEYKDDPVQMGAHWGNRFSIVLRSLPDDSEQLLHQRLETFQNTGFINYFGTQRFGSRSSTTAEIGLAIVKRDWEKAVKMIMTNAMPDHLGYGSVGYAAKCFSQTGDARKAFSKLKGAQAFATVEGNILKCLSKGGTWQNCITEAIPIQSRSLYVHAYQSLIWNKVASRRVKEYGTRVHESDVGANGFSLGEHATHYDIHIPLPGENLPFEGSYGAKWISELLEEDGLTQSSFTALKDRFSLGESSRCLFVEAKELKWKFIRYGNARDLLQDGLQTRAIPEAEQKGPLLALQIQFSLISGSYATVALREVTGSDMGKKAMRDASFKTRGDDEKTEENVLEEKGSDDANELNLVSEDQ

How the values were obtained:
[1] = biological target: 5'-3' exoribonuclease-2 (XRN-2) (C. elegans (endogenous in worm lysate)) (UniProt Q9U299); assay: SDS-PAGE of the RNA-affinity purified complex
[2] = biological target: T1, 5'-3' exoribonuclease-2 (XRN-2); assay: SDS-PAGE of the RNA-affinity purified complex
recombinant XRN-2 = biological target: T2, recombinant XRN-2

Molecule	stoichiometry N [1]	stoichiometry N (recombinant XRN-2)	other results
miRNasome-1.4 (B0024.11) (natural protein)	1	–	–
NOL-58 (natural protein)	1	–	–
B1	–	–	stoichiometry N [2]: 1
B2	–	1	–
B3	–	1	–
B4	–	1	–
